Laboratory results from the supplement of paper PMC6757056.
± gives the standard deviation of the averaged measurements.

B1: library; a variant is named by its letters at N, in order (parent)
chain: GCUGUCACCGGUGCUUGGUACGUUAUAUUCAGCCGGUCUGAUGAGUCUNNNNNNAGACGAAACAGC

Columns and labels:
(6R,S)-folinic acid [1] = variants of: B1; assay: normalized RNA/DNA level without ligand (relative to sTRSVctl = 100) (log10 (% of sTRSVctl)); HEK293T overexpressing SLC46A1; higher = less ribozyme self-cleavage, higher mRNA level; details: without (6R,S)-folinic acid; ligand present: no
Summary of the method: (§1)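 Only sequences with at least 100 DNA reads were analyzed, from HEK293T cells transfected with 4 µg per 6-well well of ribozyme switch library plasmids 72 h before RNA extraction with EDTA. Any ligand was added 1 h before transfection. RNA level was defined as RNA over DNA reads, normalized to a spiked-in non-cleaving sequence or to the top sequences, then scaled and log-transformed. The top set was 25 sequences, and the scaling was ×100 followed by log10.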

(6R,S)-folinic acid [2] = variants of: B1; assay: normalized RNA/DNA level with ligand (relative to sTRSVctl = 100) (log10 (% of sTRSVctl)); HEK293T overexpressing SLC46A1; ligand concentration (+) RNA-Seq: 6 mM; higher = less ribozyme self-cleavage, higher mRNA level; details: with (6R,S)-folinic acid; ligand present: yes
Summary of the method: as §1

| Variant | normalized RNA/DNA level without ligand (log10) ((6R,S)-folinic acid [1]) | normalized RNA/DNA level with ligand (log10) ((6R,S)-folinic acid [2]) |
| --- | --- | --- |
| GCUGUCACCGGUGCUUGGUACGUUAUAUUCAGCCGGUCUGAUGAGUCUGUUUCAAGACGAAACAGC | 2.03 ± 0.034 | 1.99 ± 0.04 |
| GCUGUCACCGGUGCUUGGUACGUUAUAUUCAGCCGGUCUGAUGAGUCUACGUGUAGACGAAACAGC | 2.06 ± 0.028 | 2.06 ± 0.024 |
| GCUGUCACCGGUGCUUGGUACGUUAUAUUCAGCCGGUCUGAUGAGUCUAGAUCCAGACGAAACAGC | 2.058 ± 0.0091 | 2.033 ± 0.02 |
| GCUGUCACCGGUGCUUGGUACGUUAUAUUCAGCCGGUCUGAUGAGUCUUCACCUAGACGAAACAGC | 2.051 ± 0.0042 | 2.06 ± 0.027 |
| GCUGUCACCGGUGCUUGGUACGUUAUAUUCAGCCGGUCUGAUGAGUCUCCGGACAGACGAAACAGC | 2.05 ± 0.0016 | 2.042 ± 0.016 |
| GCUGUCACCGGUGCUUGGUACGUUAUAUUCAGCCGGUCUGAUGAGUCUUCGCGCAGACGAAACAGC | 2.046 ± 0.014 | 2.03 ± 0.03 |
| GCUGUCACCGGUGCUUGGUACGUUAUAUUCAGCCGGUCUGAUGAGUCUUCUUACAGACGAAACAGC | 2.003 ± 0.0077 | 1.998 ± 0.0031 |
| GCUGUCACCGGUGCUUGGUACGUUAUAUUCAGCCGGUCUGAUGAGUCUACUAUUAGACGAAACAGC | 2.027 ± 0.0052 | 2.02 ± 0.043 |
| GCUGUCACCGGUGCUUGGUACGUUAUAUUCAGCCGGUCUGAUGAGUCUAGAAUGAGACGAAACAGC | 1.893 ± 0.0045 | 2 ± 0.039 |
| GCUGUCACCGGUGCUUGGUACGUUAUAUUCAGCCGGUCUGAUGAGUCUUGCGUCAGACGAAACAGC | 2.09 ± 0.0072 | 2.04 ± 0.044 |
| GCUGUCACCGGUGCUUGGUACGUUAUAUUCAGCCGGUCUGAUGAGUCUGUGAACAGACGAAACAGC | 1.908 ± 0.0094 | 2.012 ± 0.0064 |
| GCUGUCACCGGUGCUUGGUACGUUAUAUUCAGCCGGUCUGAUGAGUCUCACCGAAGACGAAACAGC | 2.021 ± 0.0036 | 2.04 ± 0.04 |
| GCUGUCACCGGUGCUUGGUACGUUAUAUUCAGCCGGUCUGAUGAGUCUUUGGUAAGACGAAACAGC | 1.92 ± 0.021 | 1.999 ± 0.014 |
| GCUGUCACCGGUGCUUGGUACGUUAUAUUCAGCCGGUCUGAUGAGUCUUGCUUUAGACGAAACAGC | 2.016 ± 0.0073 | 2.032 ± 0.0036 |
| GCUGUCACCGGUGCUUGGUACGUUAUAUUCAGCCGGUCUGAUGAGUCUUGUCCGAGACGAAACAGC | 1.86 ± 0.022 | 1.99 ± 0.033 |
| GCUGUCACCGGUGCUUGGUACGUUAUAUUCAGCCGGUCUGAUGAGUCUGGUACUAGACGAAACAGC | 2.063 ± 0.0044 | 2.04 ± 0.022 |
| GCUGUCACCGGUGCUUGGUACGUUAUAUUCAGCCGGUCUGAUGAGUCUGCAGGCAGACGAAACAGC | 1.882 ± 0.0089 | 1.86 ± 0.042 |
| GCUGUCACCGGUGCUUGGUACGUUAUAUUCAGCCGGUCUGAUGAGUCUGCGCGUAGACGAAACAGC | 2.055 ± 0.011 | 2.04 ± 0.056 |
| GCUGUCACCGGUGCUUGGUACGUUAUAUUCAGCCGGUCUGAUGAGUCUUAUCGCAGACGAAACAGC | 2.014 ± 0.0075 | 2.03 ± 0.043 |
| GCUGUCACCGGUGCUUGGUACGUUAUAUUCAGCCGGUCUGAUGAGUCUUCCGUCAGACGAAACAGC | 2.1142 ± 0.002 | 2.0759 ± 0.0012 |
| GCUGUCACCGGUGCUUGGUACGUUAUAUUCAGCCGGUCUGAUGAGUCUGCUCCUAGACGAAACAGC | 2.09 ± 0.024 | 2.07 ± 0.04 |
